Test results from the Human Domainome abundance scans (Beltran et al. 2025).
± gives the uncertainty stated by the source.

B1: Zinc finger homeobox protein 3, residues 2244 to 2299; numbered along this chain, Q15911 (parent)
chain: SSRTRFTDYQLRVLQDFFDANAYPKDDEFEQLSNLLNLPTRVIVVWFQNARQKARK

Variants of: B1
Test: abundance fitness (aPCA) (normalised: wild type 0, dead -1); higher = more abundant; growth selection in yeast, the domain comes from the species named
Conditions: Homo sapiens

| Variant | abundance fitness |
| --- | --- |
| SSRTRFTDYQLRVAQDFFDANAYPKDDEFEQLSNLLNLPTRVIVVWFQNARQKARK [L14A] | -0.668 ± 0.12 |
| SSRTRFTDYQLRVMQDFFDANAYPKDDEFEQLSNLLNLPTRVIVVWFQNARQKARK [L14M] | -0.019 ± 0.11 |
| SSRTRFTDYQLRVYQDFFDANAYPKDDEFEQLSNLLNLPTRVIVVWFQNARQKARK [L14Y] | -1.05 ± 0.31 |
| SSRTRFTDYQLRVIQDFFDANAYPKDDEFEQLSNLLNLPTRVIVVWFQNARQKARK [L14I] | -0.108 ± 0.17 |
| SSRTRFTDYQLRVPQDFFDANAYPKDDEFEQLSNLLNLPTRVIVVWFQNARQKARK [L14P] | -0.832 ± 0.19 |
| SSRTRFTDYQLRVEQDFFDANAYPKDDEFEQLSNLLNLPTRVIVVWFQNARQKARK [L14E] | -0.807 ± 0.12 |
| SSRTRFTDYQLRVDQDFFDANAYPKDDEFEQLSNLLNLPTRVIVVWFQNARQKARK [L14D] | -0.825 ± 0.19 |
| SSRTRFTDYQLRVVQDFFDANAYPKDDEFEQLSNLLNLPTRVIVVWFQNARQKARK [L14V] | -0.493 ± 0.091 |
| SSRTRFTDYQLRVNQDFFDANAYPKDDEFEQLSNLLNLPTRVIVVWFQNARQKARK [L14N] | -0.953 ± 0.25 |
| SSRTRFTDYQLRVKQDFFDANAYPKDDEFEQLSNLLNLPTRVIVVWFQNARQKARK [L14K] | -0.948 ± 0.17 |
| SSRTRFTDYQLRVWQDFFDANAYPKDDEFEQLSNLLNLPTRVIVVWFQNARQKARK [L14W] | -0.946 ± 0.15 |
| SSRTRFTDYQLRVSQDFFDANAYPKDDEFEQLSNLLNLPTRVIVVWFQNARQKARK [L14S] | -0.849 ± 0.12 |
| SSRTRFTDYQLRVGQDFFDANAYPKDDEFEQLSNLLNLPTRVIVVWFQNARQKARK [L14G] | -0.931 ± 0.095 |
| SSRTRFTDYQLRVCQDFFDANAYPKDDEFEQLSNLLNLPTRVIVVWFQNARQKARK [L14C] | -0.508 ± 0.15 |
| SSRTRFTDYQLRVFQDFFDANAYPKDDEFEQLSNLLNLPTRVIVVWFQNARQKARK [L14F] | -0.768 ± 0.2 |
| SSRTRFTDYQLRVHQDFFDANAYPKDDEFEQLSNLLNLPTRVIVVWFQNARQKARK [L14H] | -1.24 ± 0.3 |
| SSRTRFTDYQLRVRQDFFDANAYPKDDEFEQLSNLLNLPTRVIVVWFQNARQKARK [L14R] | -0.93 ± 0.1 |
| SSRTRFTDYQLRVLFDFFDANAYPKDDEFEQLSNLLNLPTRVIVVWFQNARQKARK [Q15F] | -0.299 ± 0.17 |
| SSRTRFTDYQLRVLSDFFDANAYPKDDEFEQLSNLLNLPTRVIVVWFQNARQKARK [Q15S] | -0.22 ± 0.096 |
| SSRTRFTDYQLRVLEDFFDANAYPKDDEFEQLSNLLNLPTRVIVVWFQNARQKARK [Q15E] | 0.015 ± 0.12 |
| SSRTRFTDYQLRVLDDFFDANAYPKDDEFEQLSNLLNLPTRVIVVWFQNARQKARK [Q15D] | -0.172 ± 0.15 |
| SSRTRFTDYQLRVLTDFFDANAYPKDDEFEQLSNLLNLPTRVIVVWFQNARQKARK [Q15T] | -0.113 ± 0.12 |
| SSRTRFTDYQLRVLKDFFDANAYPKDDEFEQLSNLLNLPTRVIVVWFQNARQKARK [Q15K] | -0.243 ± 0.18 |
| SSRTRFTDYQLRVLHDFFDANAYPKDDEFEQLSNLLNLPTRVIVVWFQNARQKARK [Q15H] | -0.036 ± 0.19 |

| Variant | abundance fitness |
| --- | --- |
| SSRTRFTDYQLRVLYDFFDANAYPKDDEFEQLSNLLNLPTRVIVVWFQNARQKARK [Q15Y] | -0.559 ± 0.31 |
| SSRTRFTDYQLRVLRDFFDANAYPKDDEFEQLSNLLNLPTRVIVVWFQNARQKARK [Q15R] | -0.213 ± 0.078 |
| SSRTRFTDYQLRVLCDFFDANAYPKDDEFEQLSNLLNLPTRVIVVWFQNARQKARK [Q15C] | -0.668 ± 0.16 |
| SSRTRFTDYQLRVLNDFFDANAYPKDDEFEQLSNLLNLPTRVIVVWFQNARQKARK [Q15N] | -0.077 ± 0.18 |
| SSRTRFTDYQLRVLVDFFDANAYPKDDEFEQLSNLLNLPTRVIVVWFQNARQKARK [Q15V] | -0.319 ± 0.088 |
| SSRTRFTDYQLRVLWDFFDANAYPKDDEFEQLSNLLNLPTRVIVVWFQNARQKARK [Q15W] | -0.213 ± 0.099 |
| SSRTRFTDYQLRVLPDFFDANAYPKDDEFEQLSNLLNLPTRVIVVWFQNARQKARK [Q15P] | -0.889 ± 0.17 |
| SSRTRFTDYQLRVLMDFFDANAYPKDDEFEQLSNLLNLPTRVIVVWFQNARQKARK [Q15M] | -0.155 ± 0.13 |
| SSRTRFTDYQLRVLLDFFDANAYPKDDEFEQLSNLLNLPTRVIVVWFQNARQKARK [Q15L] | -0.079 ± 0.095 |
| SSRTRFTDYQLRVLGDFFDANAYPKDDEFEQLSNLLNLPTRVIVVWFQNARQKARK [Q15G] | -0.01 ± 0.073 |
| SSRTRFTDYQLRVLQDFLDANAYPKDDEFEQLSNLLNLPTRVIVVWFQNARQKARK [F18L] | -0.19 ± 0.1 |
| SSRTRFTDYQLRVLQDFQDANAYPKDDEFEQLSNLLNLPTRVIVVWFQNARQKARK [F18Q] | -0.268 ± 0.14 |
| SSRTRFTDYQLRVLQDFMDANAYPKDDEFEQLSNLLNLPTRVIVVWFQNARQKARK [F18M] | -0.298 ± 0.14 |
| SSRTRFTDYQLRVLQDFEDANAYPKDDEFEQLSNLLNLPTRVIVVWFQNARQKARK [F18E] | -0.579 ± 0.12 |
| SSRTRFTDYQLRVLQDFNDANAYPKDDEFEQLSNLLNLPTRVIVVWFQNARQKARK [F18N] | -0.733 ± 0.29 |
| SSRTRFTDYQLRVLQDFKDANAYPKDDEFEQLSNLLNLPTRVIVVWFQNARQKARK [F18K] | -0.625 ± 0.14 |
| SSRTRFTDYQLRVLQDFIDANAYPKDDEFEQLSNLLNLPTRVIVVWFQNARQKARK [F18I] | -0.249 ± 0.22 |
| SSRTRFTDYQLRVLQDFTDANAYPKDDEFEQLSNLLNLPTRVIVVWFQNARQKARK [F18T] | -0.772 ± 0.14 |
| SSRTRFTDYQLRVLQDFSDANAYPKDDEFEQLSNLLNLPTRVIVVWFQNARQKARK [F18S] | -0.349 ± 0.1 |
| SSRTRFTDYQLRVLQDFADANAYPKDDEFEQLSNLLNLPTRVIVVWFQNARQKARK [F18A] | -0.279 ± 0.086 |
| SSRTRFTDYQLRVLQDFVDANAYPKDDEFEQLSNLLNLPTRVIVVWFQNARQKARK [F18V] | -0.435 ± 0.084 |
| SSRTRFTDYQLRVLQDFGDANAYPKDDEFEQLSNLLNLPTRVIVVWFQNARQKARK [F18G] | -0.984 ± 0.11 |
| SSRTRFTDYQLRVLQDFCDANAYPKDDEFEQLSNLLNLPTRVIVVWFQNARQKARK [F18C] | -0.174 ± 0.12 |
